± gives the standard deviation of the averaged measurements.
Tested on: Saccharomyces cerevisiae
Test: protein stability index of tFT-peptide fusion (C-terminal peptide) (PSI (0-1 scale)); higher = more stable (slower turnover)
Conditions: genetic background: wild type; temperature: 30 C
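Also: PSI is a weighted mean of sequencing reads over stability bins, variants kept only with over 10 reads, mCherry proximal and sfGFP distal, peptide attached via GGGS linker.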

Sequence	protein stability index
VSKYNGIKRRNG	0.6 ± 0.0085
VSLCYGGGFWGG	0.722 ± 0.014
VSLVLESFFGRV	0.719 ± 0.014
VSPFSILLPVPL	0.608 ± 0.017
VSPLFQDFSIIN	0.717 ± 0.06
VSPTGRRGYGRS	0.66754 ± 0.00015
VSRGESEVKAGG	0.673 ± 0.1
VSRGRVKETGEE	0.713 ± 0.038
VSRKEQYPEAQE	0.625 ± 0.033
VSSFALDVGFHF	0.638 ± 0.068
VSSFGHTFCGWI	0.618 ± 0.018
VSSPLLFCSIFL	0.675 ± 0.026
VSSTLVARTVWC	0.69 ± 0.035
VTGGGVGHWGWW	0.761 ± 0.052
VTGSGVGGSPEC	0.683 ± 0.042
VTLFFLFSLSPP	0.56 ± 0.013
VTLWGFFRVLSL	0.686 ± 0.043
VVARFDTILLWS	0.608 ± 0.06
VVARGGGGGSGA	0.583 ± 0.016
VVAVRLPNVRHY	0.655 ± 0.018
VVAVTTIDSTHL	0.682 ± 0.033
VVFASNGSYVLG	0.672 ± 0.041
VVFTSISFGLFV	0.572 ± 0.044
VVGAHLWSGFSA	0.711 ± 0.013
VVGGAGRRYVEG	0.702 ± 0.036

Sequence	protein stability index
VVGKKQTGEKEK	0.725 ± 0.048
VVGRWRVCNVGL	0.626 ± 0.05
VVGVLRVRSGEN	0.606 ± 0.03
VVGYAIRVRSGL	0.593 ± 0.018
VVLWSTGRVLYG	0.699 ± 0.025
VVPDVGVVTSPA	0.649 ± 0.072
VVRCVLSQKCLV	0.578 ± 0.015
VVSRTCVRWGLV	0.655 ± 0.039
VVSVQHEVIIFL	0.611 ± 0.05
VVSWLGAGYSVR	0.7 ± 0.071
VVWLWGAGWGCD	0.747 ± 0.022
VVYFGVVVEGQV	0.514 ± 0.032
VWAGGSLLGCVG	0.686 ± 0.044
VWAVALSRQGPC	0.689 ± 0.016
VWFFSHFCGVRF	0.686 ± 0.012
VWGAGGGVWGLG	0.793 ± 0.0085
VWGRRVMESHGE	0.628 ± 0.042
VWLGTCLPRRAV	0.725 ± 0.13
VWRCWGGKGQDS	0.729 ± 0.037
VWRRCVPGPASP	0.67 ± 0.0097
VWSSCAGDVLFD	0.734 ± 0.039
VWVFGLGLGRVV	0.691 ± 0.032
VWVGSLWEHPTV	0.781 ± 0.17
VWVWVGGGSRGC	0.7121 ± 0.0041
VYAETMTKELRG	0.69 ± 0.053

Sequence	protein stability index
VYDCDVRHFGQC	0.761 ± 0.053
VYHMFHLGPSFD	0.7051 ± 0.0015
VYLEWQFGIKEL	0.648 ± 0.052
VYMWFVDSPGGS	0.682 ± 0.037
VYSLQSFSVRRY	0.704 ± 0.018
VYYRRFTGGGLY	0.583 ± 0.016
WACYRLGCGGSW	0.774 ± 0.041
WAFSAFDHCVAS	0.665 ± 0.058
WCAYRPGSTGHR	0.731 ± 0.058
WCLDVGSVSWPF	0.79432 ± 0.0005
WCNLSFEDNYVT	0.658 ± 0.018
WCWCSLVVDGTA	0.5707 ± 0.0047
WFGAECVCVRGG	0.762 ± 0.2
WFHSANLFLSLS	0.705 ± 0.077
WFPNQCFENEIP	0.742 ± 0.054
WFRCCGVLGCLG	0.657 ± 0.019
WFRGRIFLFPLV	0.628 ± 0.014
WGDGRGRVWEIS	0.674 ± 0.048
WGEGRGRVWEIS	0.665 ± 0.036
WGGCGSVGRGGA	0.739 ± 0.052
WGGGGGGDCVGA	0.6732 ± 0.0029
WGGGGGLCGMWA	0.679 ± 0.032
WGGGGPGWGSRG	0.621 ± 0.027
WGGRNWDGRGCG	0.612 ± 0.068
WGGWGVGGRVLW	0.675 ± 0.066

Sequence	protein stability index
WGIQGIKFFVGA	0.7111 ± 0.0032
WGISRSLRPGEV	0.739 ± 0.12
WGQSMFSLLVSI	0.542 ± 0.035
WGRRVRVEGVVL	0.613 ± 0.022
WGSGGGRDGCGV	0.655 ± 0.083
WGTVIYGVGSGQ	0.691 ± 0.036
WGVCVIDSWQEG	0.6706 ± 0.0032
WGVGVCSRVLRS	0.674 ± 0.026
WGVVAVSGRLGA	0.78 ± 0.012
WGWGVGWSGACL	0.7116 ± 0.0017
WGWGVLRRRVGA	0.76 ± 0.082
WGWGWWEMVGRT	0.674 ± 0.0039
WGWSGGEDCLEG	0.64 ± 0.0073
WHDCLYLWADLG	0.693 ± 0.04
WILFQAGSREIR	0.701 ± 0.017
WISARQHQKTRL	0.702 ± 0.065
WKQEKYTFKKRT	0.707 ± 0.032
WLFGSFSLLFWL	0.522 ± 0.015
WLFVALRGRFEF	0.59 ± 0.042
WLKVRINFYKRK	0.52 ± 0.038
WLRCGCVKWAGG	0.657 ± 0.013
WLVPLDYKEGVV	0.687 ± 0.035
WNQRMEPCLMSS	0.65 ± 0.026
WPASLCRLGSVH	0.64894 ± 0.00014
WPGRTGANTRSG	0.671 ± 0.11

Sequence	protein stability index
WPLLLHLLHLLR	0.697 ± 0.12
WPLPRPEFCGAP	0.6316 ± 0.0011
WPLVGLIGVPGR	0.668 ± 0.035
WPMYSVIKAQLK	0.638 ± 0.015
WPPPPPPPASPH	0.719 ± 0.071
WPRPSLPPLYAP	0.685 ± 0.051
WPYDRHTRHRET	0.767 ± 0.092
WPYEPGSSIVNG	0.717 ± 0.01
WRKMSNDIRGRW	0.799 ± 0.11
WRLAVDLGRFCT	0.617 ± 0.16
WRSGLRGPAIYG	0.707 ± 0.018
WRSLVTVSTTAC	0.558 ± 0.042
WSLGLVGRGFWG	0.73 ± 0.11
WSLGRRKLLHRI	0.666 ± 0.064
WSLLLLPEFSLR	0.705 ± 0.012
WSVGYLSVALYR	0.615 ± 0.014
WSWEVTSSVCRI	0.732 ± 0.058
WTFPWICFLGFG	0.589 ± 0.029
WTRFSEKIVILR	0.582 ± 0.026
WVGRGGAVENKV	0.718 ± 0.03
WVLRRVGTVVYL	0.585 ± 0.018
WVLSYVPEIGRL	0.741 ± 0.035
WVWGWRRGLRGV	0.657 ± 0.011
WVWKRLTGQDGA	0.668 ± 0.06
WWGFGGVWRCGL	0.6874 ± 0.0056

Sequence	protein stability index
WWHVLLGGCGCW	0.753 ± 0.013
WWLARNPLLSRL	0.779 ± 0.026
WWSAHIRAGASL	0.672 ± 0.017
WWWGGGRGGMGG	0.734 ± 0.019
WYVALGRFVGGS	0.678 ± 0.049
YACFRYEYNRLR	0.679 ± 0.029
YACRLAPGDLLA	0.643 ± 0.0088
YAIINISRESLD	0.717 ± 0.062
YAVGSAGLGVGL	0.697 ± 0.1
YAVIRILCSSRR	0.5725 ± 0.0039
YDMFCSYRFYPI	0.636 ± 0.07
YDRVVHASSTMW	0.707 ± 0.013
YEASSIPAWRYV	0.529 ± 0.034
YEGPSTLVYHVR	0.915 ± 0.082
YESIVLYPEMYL	0.714 ± 0.2
YFFQAFLLRTPL	0.642 ± 0.018
YFGGRGARGRER	0.676 ± 0.027
YFGGRGPRGRER	0.714 ± 0.0095
YFGRGKLGVVRT	0.705 ± 0.013
YFKLLHSRPSVG	0.675 ± 0.044
YFLLLLLNSSTP	0.528 ± 0.042
